First the molecules themselves.
T1: Human soluble IL6-R (human, UniProt P08887 20-358)
T1 construct: Bought soluble receptor; biotinylated in some Alphascreen assays; also called sIL6-R; hIL-6R
T1 sequence (looked up): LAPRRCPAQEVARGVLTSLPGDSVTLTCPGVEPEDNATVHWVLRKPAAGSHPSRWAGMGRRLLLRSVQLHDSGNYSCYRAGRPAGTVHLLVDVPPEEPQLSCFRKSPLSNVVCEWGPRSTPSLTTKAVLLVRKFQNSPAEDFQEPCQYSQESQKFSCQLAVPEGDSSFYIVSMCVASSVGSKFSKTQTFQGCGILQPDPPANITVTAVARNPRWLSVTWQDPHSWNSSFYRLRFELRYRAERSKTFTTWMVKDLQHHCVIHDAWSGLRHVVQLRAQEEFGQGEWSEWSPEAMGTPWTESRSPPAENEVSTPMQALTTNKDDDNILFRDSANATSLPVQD

T2: IL6-R on U266 cells (human, UniProt P08887 20-468)
T2 sequence (looked up): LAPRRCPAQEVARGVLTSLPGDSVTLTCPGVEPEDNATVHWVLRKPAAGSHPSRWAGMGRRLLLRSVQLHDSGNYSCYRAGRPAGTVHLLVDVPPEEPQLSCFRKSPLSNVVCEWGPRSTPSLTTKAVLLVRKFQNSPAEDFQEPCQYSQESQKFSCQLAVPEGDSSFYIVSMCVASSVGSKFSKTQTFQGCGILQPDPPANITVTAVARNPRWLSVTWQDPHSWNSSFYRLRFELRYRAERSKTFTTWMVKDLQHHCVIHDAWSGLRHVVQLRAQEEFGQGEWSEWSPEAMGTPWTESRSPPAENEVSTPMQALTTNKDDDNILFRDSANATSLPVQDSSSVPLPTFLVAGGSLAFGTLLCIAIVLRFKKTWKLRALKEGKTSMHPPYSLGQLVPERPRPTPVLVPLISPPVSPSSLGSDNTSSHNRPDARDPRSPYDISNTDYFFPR

B1: IL6R01 (VHH)
VHH: EVQLVESGGGFVQAGGSLRLSCIASGDNFSINRMGWYRQALGKQRELVAIITNHGSTNYADAVKGRFTISRDYAKNTVYLQMNGLKPDDTAVYYCNAYISEVGTWRDDYWGQGIQVTVSS
notes: also called PMP28E11; PMP 28 E11
B2: IL6R02 (VHH)
VHH: EVQLVESGGGLVQAGGSLRLSCAASGRTFSSYDMGWYRQAPGKEREFVAVISRSGSSTYYADSVKGRFTISRDNAKNTVYLQMNSLKPEDTAIYYCKAEVVAGDYDYWGQGTQVTVSS
notes: also called PMP30C11; PMP 30 C11
B3: IL6R08 (VHH)
VHH: EVQLVESGGGLVQPGGSLRLSCVASGFSLDYYVIGWFRQAPGKEREGVSCISSSDGSTYYADSVKGRFTISRDNAKNTVYLQMNSLKPEDTAVYYCAADLLRTPEFCVDSAPYDYWGQGTQVTVSS
notes: also called PMP34A12; PMP 34 A12
B4: IL6R11 (VHH)
VHH: EVQLVESGGGLVQAGGSLRLSCAASGFTFDDYAIGWFRQAPGKEHEGVSCISSSDGSTYYADSVKGRFTISSDNAKNTVYLQMNSLKPEDTAVYYCAAERDVPARSLCGSYYWYDYRGQGTQVTVSS
notes: also called PMP35E11; PMP 35 E11
B5: Reference Fab (Fab, V domains shown)
VH: QVQLQESGPGLVRPSQTLSLTCTVSGYSITSDHAWSWVRQPPGRGLEWIGYISYSGITTYNPSLKSRVTMLRDTSKNQFSLRLSSVTAADTAVYYCARSLARTTAMDYWGQGSLVTVSS
VL: DIQMTQSPSSLSASVGDRVTITCRASQDISSYLNWYQQKPGKAPKLLIYYTSRLHSGVPSRFSGSGSGTDFTFTISSLQPEDIATYYCQQGNTLPYTFGQGTKVEIKR
notes: Anti-human IL-6R Fab according to EP 0 628 639, made in E. coli periplasm; also called Tocilizumab-Fab
B6: IL6R12 (VHH)
VHH: EVQLVESGGGLVQAGGSLRLSCAASGRTFSSYDMGWYRQAPGKEREFVAIITWNSSTYYADSVKGRFTISRDNAKNTVYLQMNSLKPEDTAIYYCNAQYGLGYAEDYWGQGTQVTVSS
notes: also called PMP35F4; PMP 35 F4
B7: PMP 28 B1 (VHH)
VHH: EVQLVESGGGLVQPGGSLRLSCAASGFTLNYYAIGWFRQAPGKEREGVSCISSSDGSTYYADSVKGRFTISRDNAKNTFYLQMNSLKPEDTAVYYCAAEGLGDSDSPCGAAWYNDYWGQGTQVTVSS
notes: also called PMP28B1(t)
B8: PMP 30 G11 (VHH)
VHH: B3 VHH
notes: also called PMP30G11(t)
B9: PMP 30 A2 (VHH)
VHH: B3 VHH with V23A, S28T, S52G, G56D, V108T
notes: also called PMP30A2(t)
B10: PMP 34 C3 (VHH)
VHH: B3 VHH with Q118R
notes: also called PMP34C3(t)
B11: PMP 30 B6 (VHH)
VHH: B3 VHH with V23A, S28T, G47A, S49A, G56R, V79G, V108S
notes: also called PMP30B6(t)
B12: PMP 34 C11 (VHH)
VHH: EVQLVESGGGLVQPGGSLRLSCAAAGFTLDYSAIGWFRQAPGKEREMFSCISGSDGSTWYADSVAGRFTISFDNAKNTVYLQMNSLKPEDTGLYICAVTGGVRGPCAYEYEYWGQGTQVTVSS
B13: PMP 28 C7 (VHH)
VHH: EVQLVESGGGLVQPGGSLRLSCAASGFTFGSYDMSWVRQAPGKGPEWVSAINSGGDNTYYADSVKGRFTISRDNAKNTLYLQMNSLKPEDTAVYYCATDWRYSDYDLPLPPPGDYWGQGTQVTVSS
notes: also called PMP28C7(t)
B14: PMP 28 H6 (VHH)
VHH: B13 VHH with D56G, N57S
notes: also called PMP28H6(t)
B15: PMP 28 F7 (VHH)
VHH: B13 VHH with D56G, N57S
notes: also called PMP28F7(t)
B16: PMP 32 H5 (VHH)
VHH: B13 VHH with D56G, N57S
notes: also called PMP32H5(t)
B17: PMP 31 B11 (VHH)
VHH: B13 VHH with D56G, N57S
notes: also called PMP31B11(t)
B18: PMP 31 F4 (VHH)
VHH: B13 VHH with D56G, N57S
notes: also called PMP31F4(t)
B19: PMP 31 B4 (VHH)
VHH: B13 VHH with D56G, N57S
notes: also called PMP31B4(t)
B20: PMP 31 C8 (VHH)
VHH: B13 VHH with D56G, N57S
notes: also called PMP31C8(t)
B21: PMP 28 D4 (VHH)
VHH: B13 VHH with D56G, N57S
notes: also called PMP28D4(t)
B22: PMP 28 G3 (VHH)
VHH: EVQLVESGGGLVQAGGSLRLSCTASGNIFSTETMGWYRQPPGKQRDVVATITHGGTTNYADSVKGRFTISRDNRKNTVYLQMNSLKPEDTGVYYCNARSSWYSPEYWGQGTQVTVSS
B23: PMP 34 E10 (VHH)
VHH: EVQLVESGGGLVQAGGSLRLSCAASGRTFSSYAMGWGRQAPGKEREFVATISWSGGSTYYADSVKGRFTISRDNAKNTVYLQMNSLKPEDTAVYYCAADLAEFKYSDYADYWGQGTQVTVSS
B24: PMP 34 D2 (VHH)
VHH: EVQLVESGGGLVQPGGSLRLSCAASGFTLDYFAIGWFRQAPGKERERVSCISSSDGSTYYADSVKGRFTISRDNAKNTVYLQMNSLKPEDTAVYYCATDRSVYYCSGGAPEEYYWGQGTQVTVSS
notes: also called PMP34D2(t)
B25: PMP 30 B1 (VHH)
VHH: B24 VHH with F32Y, F37W, E44G, R47G, S54G, Y59N
notes: also called PMP30B1(t)
B26: PMP 34 E9 (VHH)
VHH: B24 VHH with F32Y, R47G, V93A, G108D
notes: also called PMP34E9(t)
B27: PMP 34 A5 (VHH)
VHH: B24 VHH with D30G, R47G, I70V
notes: also called PMP34A5(t)
B28: PMP 33 G3 (VHH)
VHH: B24 VHH with D30G, R47G, T58A, I70V
notes: also called PMP33G3(t)
B29: PMP 34 G3 (VHH)
VHH: B24 VHH with F32Y, V93A

Positions count from the first letter of the chain named. “And” between values parts separate entries of the source, which are not always exact repeats. Equal entries are not always repeated.

Broadly, the Kd is the free concentration of one partner at which half of the binding sites on the other are occupied at equilibrium, for simple one-to-one binding. What is called koff is a measure of how fast the partners let go of each other. For orientation: kon means a measure of how fast the partners come together. A low value points to slow association.

The first test addresses T1, Human soluble IL6-R. Nature of the test: SPR (Biacore 3000), IL6-R on CM5 chip.
B1 gave a Kd of 0.418 nM, a koff of 0.00011 s⁻¹ and a kon of 262000 M⁻¹ s⁻¹.

Turning to B2, the affinity, expressed as Kd, was 5.9 nM; the koff was 0.00294 s⁻¹ and 0.00495 s⁻¹; the on-rate (kon) is 840000 M⁻¹ s⁻¹.

On to B3, for which the Kd is 10.2 nM, the off-rate constant (koff) was 0.00197 s⁻¹ and the kon was 194000 M⁻¹ s⁻¹.

For the molecule B4, the Kd was 0.87 nM and 1.85 nM; the koff was 0.00034 s⁻¹ and 0.000396 s⁻¹ and 0.000417 s⁻¹; the kon is 391000 M⁻¹ s⁻¹ and 215000 M⁻¹ s⁻¹.

B5: binding was characterised by a dissociation constant (Kd) of 0.86 nM, the off-rate constant (koff) amounted to 0.00066 s⁻¹ and the kon amounted to 768000 M⁻¹ s⁻¹.

Turning to B6, the Kd came out at 1.71 nM; the off-rate constant (koff) was 0.00116 s⁻¹ and 0.000896 s⁻¹; the on-rate (kon) amounted to 678000 M⁻¹ s⁻¹.

The next test addresses T1, Human soluble IL6-R. Nature of the test: SPR (Biacore), off-rate. Background: SPR reads the build-up and loss of mass on a sensor chip optically.
As for B7, the koff worked out at 0.00134 s⁻¹.

B2 came in with a koff of 0.00294 s⁻¹.

B8 displayed a koff of 0.00164 s⁻¹.

Regarding B9, the koff turned out to be 0.00257 s⁻¹.

For B10, the koff was 0.000435 s⁻¹.

Turning to B11, the koff worked out at 0.000842 s⁻¹.

Regarding B12, the off-rate constant (koff) worked out at 0.00367 s⁻¹.

Molecule B13 yielded a koff of 0.00131 s⁻¹.

With B14, the koff amounted to 0.00247 s⁻¹.

The molecule B15 yielded an off-rate constant (koff) of 0.00126 s⁻¹.

B16: the koff is 0.00128 s⁻¹. The koff values of the last two molecules are within 1.5-fold of each other.

B17 registered a koff of 0.00124 s⁻¹. The koff values of the last two molecules are within 1.5-fold of each other.

B18 gave an off-rate constant (koff) of 0.00123 s⁻¹.

B19 came in with a koff of 0.00128 s⁻¹.

As for B20, the koff was found to be 0.00125 s⁻¹. This koff and that of the molecule before are within 1.5-fold of each other.

With B21, the koff worked out at 0.00185 s⁻¹.

For the molecule B22, the koff worked out at 0.00193 s⁻¹.

Regarding B4, the koff stood at 0.000417 s⁻¹.

In turn, B23 had an off-rate (koff) of 0.002 s⁻¹. This koff lies about 4.8-fold higher than the previous one.

With B24, the koff is 0.000331 s⁻¹.

In the case of B25, the off-rate (koff) is 0.001 s⁻¹.

The molecule B26 returned a koff of 0.000503 s⁻¹.

B27 came in with a koff of 0.00168 s⁻¹.

Molecule B28 came in with a koff of 0.00119 s⁻¹.

In turn, B29 showed a koff of 0.00014 s⁻¹.

Molecule B6 yielded an off-rate (koff) of 0.000896 s⁻¹.

For the next test, the target named is T2, IL6-R on U266 cells. Nature of the test: cell-based or functional assay.
As for B2, the “IC50, TF-1 proliferation” value was determined as 29.7 nM.

For the molecule B3, the “IC50, TF-1 proliferation” value was 42.9 nM.

Regarding B4, the “IC50, TF-1 proliferation” value amounted to 6.62 nM.

In the case of B6, the “IC50, TF-1 proliferation” value stood at 6.92 nM.

Another test concerns the target T1, Human soluble IL6-R. Description: Alphascreen, 100 nM Nanobody; competitor Reference-Fab on beads.
For B1, the “% binding retained in competition with Reference-Fab” value (“% binding retained in competition” below) is 49%.

For B2, the “% binding retained in competition” value is 86%.

On to B3, for which the “% binding retained in competition” value came to 99%.

Consider B4, for which the “% binding retained in competition” value turned out to be 40%.

Turning to B6, the “% binding retained in competition” value is 103%.

A further test has as its target T2, IL6-R on U266 cells. Description: cell-based or functional assay. This is another data set of the same source.
For the molecule B2, the “IC50, XG-1 proliferation” value amounted to 31 nM.

For the molecule B3, the “IC50, XG-1 proliferation” value came out at 36.6 nM.

As for B4, the “IC50, XG-1 proliferation” value stood at 5.37 nM.

For the molecule B5, the “IC50, XG-1 proliferation” value worked out at 5.99 nM.

As to B6, the “IC50, XG-1 proliferation” value came out at 2.75 nM.

Values taken from patent US20140221623A1 (Ablynx, published 2014).
